Experimental data taken from patent US20080008707A1, “Denatured collagen peptides and uses thereof” (Cell-Matrix, Inc., priority 2006, published 2008).
Square brackets hold non-standard residues; d marks the D form. Ends that are not written are not given here. Hyp = O=C(O)[C@@H]1C[C@@H](O)CN1

What was measured:
D93 = assay: Peptide array screening ELISA: D93 binding to biotinylated synthetic collagen peptides; settings: for binding activity by D93 (primary peptide array): 10 μg/mL D93, 16-mers with N-terminal biotin, 50% proline/hydroxyproline mixture at each proline; for MAB BINDING (OD450nM): D93 at 10 μg/mL, average of duplicate tests, secondary array, proline or hydroxyproline at each proline position
Method: The synthesis of short peptide arrays or single peptides was contracted to New England Peptide, Gardner, Mass. A peptide array (primary array) was initially constructed which corresponded to specific locations in the protein sequences that were identified in by N-terminal sequencing reactions as described above. The peptide array consisted of a 96-well microplate template containing individual, overlapping peptides (˜1 to 10 mg/well) corresponding to a contiguous sequence of the human collagen type alpha I chain (between residues G1,064 and T1,669) with an N-terminal biotin and 50% hydroxyproline or proline mixture for each proline residue, with a length of 16 amino acids and overlap of 10 amino acids with the adjacent protein sequence. Peptides were dissolved in 400 μL DMSO to achieve a stock peptide concentration of 2.5 to 25 mg/mL.
The ELISA assay described above was used screen peptides for D93 binding activity. Briefly, 100 μL of streptavidin at 10 μg/mL in PBS was coated onto 96-well microtiter plates from 12 to 18 hours at 2 to 8° C. Plates were blocked with 1% BSA/PBS as above. D93 was diluted to 10 μg/mL in 1% BSA/PBS, and 100 μL per well was added, in duplicate, as described above and incubated for 1 hour at room temperature. The secondary anti-human IgG-HRP, substrate development and plate reader steps were as described above. Peptides which were bound by D93 were further tested for inhibition of D93 binding to human heat-denatured-collagen IV using the ELISA described above. Peptides and D93 antibody were prepared at a 2× concentration in 1% BSA/PBS of the final test concentration and pre-mixed in 1.7 mL microfuge for 15 minutes prior to adding to the microplate wells.
A second peptide array was constructed based on permutations of the protein sequence (collagen IV alpha I chain residues 1337-1352, termed “peptide 40” of the primary array) in the primary array that reacted with D93. The secondary array consisted of individual peptides with either proline or hydroxyproline at each proline residue in the peptide PGAKGLPGPPGPPGPY (SEQ ID NO: 1).

[1] = target: HUI77, murine IgM anti-denatured-collagen monoclonal antibody; assay: competition ELISA on coated dn-collagen IV; * separate assay
[2] = target: D93, recombinant humanized IgG1 kappa antibody targeting denatured-collagen; assay: competition ELISA on coated human dn-collagen IV; * separate assay
[3] = target: D93, recombinant humanized IgG1 kappa antibody targeting denatured-collagen; assay: competition ELISA on coated human dn-collagen IV
[4] = target: HUI77, murine IgM anti-denatured-collagen monoclonal antibody; assay: competition ELISA on coated dn-collagen IV

D93, recombinant humanized IgG1 kappa antibody targeting denatured-collagen, sequence (heavy, as listed by the source, chain 1 of 2): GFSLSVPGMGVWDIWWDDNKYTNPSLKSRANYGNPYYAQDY
D93, recombinant humanized IgG1 kappa antibody targeting denatured-collagen, sequence (light, as listed by the source, chain 2 of 2): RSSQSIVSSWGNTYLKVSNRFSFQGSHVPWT

binding activity by D93 (primary peptide array) (D93)	MAB BINDING (OD450nM) (D93)	% inhibition of HUI77 binding to dn-collagen IV, peptide 100 µM [1] [%]	% inhibition of HUI77 binding to dn-collagen IV, peptide 1000 µM [1] [%]	% inhibition of D93 binding to dn-collagen IV, peptide 10 µM [2] [%]	% inhibition of D93 binding to dn-collagen IV, peptide 100 µM [2] [%]	% inhibition of D93 binding to dn-collagen IV, peptide 1 µM [3] [%]	% inhibition of D93 binding to dn-collagen IV, peptide 10 µM [3] [%]	% inhibition of D93 binding to dn-collagen IV, peptide 100 µM [3] [%]	% inhibition of D93 binding to dn-collagen IV, peptide 1000 µM [3] [%]	% inhibition of HUI77 binding to dn-collagen IV, peptide 10 µM [4] [%]	% inhibition of HUI77 binding to dn-collagen IV, peptide 100 µM [4] [%]	% inhibition of HUI77 binding to dn-collagen IV, peptide 1000 µM [4] [%]	% inhibition of D93 binding to dn-collagen IV, peptide 1000 µM [2] [%]	% inhibition of HUI77 binding to dn-collagen IV, peptide 10 µM [1] [%]	% inhibition of D93 binding to dn-collagen IV, peptide 1 µM [2] [%]	Molecule
higher activity than the others	0.348	–	–	–	–	–	–	–	–	–	–	–	–	–	–	13: peptide 13 of the primary collagen IV alpha 1 array: biotinylated 16-mer, 50% proline/hydroxyproline at each proline (PGAKGLPGPPGPPGPY; not fully specified; also: biotinylated, position not given here) [compound 13]
–	0.136	–	–	–	–	–	–	–	–	–	–	–	–	–	–	1 (PGAKGLPGPPGPPGPY) [compound 1]
higher activity than the others	–	–	–	–	–	–	–	–	–	–	–	–	–	–	–	peptide 40: primary array peptide, collagen IV alpha I chain residues 1337-1352, 50% proline/hydroxyproline mixture; b687 equates it with SEQ ID NO: 2 (XGAKGLPGPXGPXGPY; not fully specified; X: randomised place (mixture))
–	–	0	63	79.9	90.3	33	82.5	94	94	8.5	12	78	–	–	–	GP[Hyp]GP[Hyp]GPY [synthetic peptide No. 3, … (SEQ ID NO: 30)]
–	–	–	–	–	–	30	81	93.5	93.5	7.5	18	86.5	–	–	–	[Hyp]GAKGLPGP[Hyp]GP[Hyp]GPY [synthetic peptide No. 12, … (SEQ ID NO: 2)]
–	–	–	–	–	–	11	43	89.5	93.5	4.5	9	62	–	–	–	F[Hyp]GP[Hyp]GPDGL[Hyp]GSMGP[Hyp]G [synthetic peptide No. 7, … (SEQ ID NO: 36)]
–	–	–	–	–	–	12	41.5	89	92.5	10	14	73	–	–	–	LPGP[Hyp]GP[Hyp]GP [synthetic peptide No. 5, … (SEQ ID NO: 20)]
–	–	–	–	–	–	7	6	3.5	7.5	2.5	8	3.5	–	–	–	GPPG (also: hydroxyproline marking, if any, lost) [synthetic peptide No. 22, GPPG (SEQ ID NO: 35)]
–	–	–	–	–	–	13	35.5	85.5	92.5	6.5	18	86	–	–	–	LPGP[Hyp]GP[Hyp]G [synthetic peptide No. 20, … (SEQ ID NO: 21)]
–	–	–	–	–	–	5	4.5	1.5	6.5	1.5	2	1	–	–	–	GPPGPPG (also: hydroxyproline at marked P positions, if any, marking lost) [synthetic peptide No. 23, GPPGPPG (SEQ ID NO: 33)]
–	–	–	11.1	–	–	4.5	1	0	3.5	6.5	6.5	6.5	4.9	–	–	CTWPRHHTTDALL [non-collagen control peptide No. 6, … (SEQ ID NO: 39)]
–	–	0	3.7	7.8	8.3	–	–	–	–	–	–	–	11.6	10.2	5.4	LPGFPG (also: hydroxyproline marking, if any, lost) [synthetic peptide No. 24, LPGFPG (SEQ ID NO: 38)]
–	–	–	–	–	–	11	6	4	11.5	8	10.5	10	–	–	–	[Hyp]GAKGLPGP [synthetic peptide No. 13, … (SEQ ID NO: 17)]
